Substrate in this data set: OC(CS)C(O)CS
Description: oxygen consumption, Clark-type oxygen electrode. Format: biochemical, Trypanosoma brucei. Particulars: O2 as electron acceptor, air-saturated, 25 °C, 50 nM enzyme, Michaelis-Menten fit of data up to 1 mM DTT (turnover rises beyond the fit above 1 mM).

B1: TbQSOX (Trypanosoma brucei brucei TREU927) (protein)
chain: SVAQVATGSPRPGLFHLDSSVVDLSGDDFSRVHRVAPLCPWIVLFYNDGCGACRRYASTFSKFAGGLKVEHGKDALQIATAAAVNCASEVDLCRKYDINFVPRLFFFYPRDSCRSNEECGTSSLEHVAFENSHLEVDELESEVRRLVNKHMVVDDSLKERCIDMHFKLYTSKEELVKRSVSSTDESGRFVETTELYATDIAGAFFSAMHYDVSLVGTEPRERLTALEDFVLLVKDSLPSIGADGVVSALESITAERPFTVASWQDAVVKSGIPFDGSPRNVRWRTCRGSSPQYRGFPCGMWLLLHALTVNTPADRNVLEVIQNYIRYFFSCKECRDHFIQFNFSPNEDPVLQLWRAHNNVNARLANVKDGADPLVPKRQFPTLEACTECYDGAGNFIEAHVTGFLKQRYLWDPKAVGLMESNDDLNEVDPASKDANVGRNVESSGKGKGDGGARGNSKEVRSDHAG
For the protein B1, the Michaelis-Menten constant (Km) – broadly, the substrate concentration at which the rate is half of its maximum – was 65 ± 10 µM.

Source of the values: PMC4634331, “Single-molecule spectroscopy exposes hidden states in an enzymatic electron relay” (Nature Communications, 2015).
